Among the data in the supplement of paper PMC12042874 are amyloid nucleation score values, retold here.

± gives the uncertainty stated by the source.

The nature of the data set: amyloid nucleation score (Sup35N fusion, yeast selection) (log enrichment); library NNK3; higher = more nucleation; inactive = no reads after selection. In short, it runs like this: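 DiMSum was used to calculate nucleation scores as log enrichment of output over input reads, centred on the mode score of non-aggregating sequences. Sequences with fewer than 100 input reads were not scored. Input and output came from Illumina sequencing of plasmid inserts in psi-negative yeast expressing peptides of 20 random codons fused to Sup35N, induced 24 hours with 100 μM copper sulfate and then grown 7 days at 30°C on medium lacking adenine and uracil.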
CRVSGGTCMTGISDRRRERI: the amyloid nucleation score result is “inactive”.
As for TRRGSDLPSVLAMFLSKSTR, the amyloid nucleation score result is “inactive”.
Regarding GLDLSSYPEL, the amyloid nucleation score entry was “inactive”.
Next, LWQGNMM: -1.07 ± 1.9; YGHFPQCVPLIFCYRRSMVT: “inactive”; FKQIVKTSFNLCFFIRCKRT: “inactive”.
For LLIGNY the value was “inactive”; for SVIYIWDG, 0.425 ± 0.43.
Consider HDHFWLYCMCNRTSGYLESF, for which the amyloid nucleation score result is “inactive”.
For YLGGVRSII the value was -0.402 ± 1.9.
For SLNKHR the value was “inactive”; for KCCEQRAIIPFVGRTRSHAT, “inactive”.
Next, AIGRTCGKYMYSFGGLHSSH: “inactive”; TFSNNYPFSRWGCFSVLAV: “inactive”; SMNNWGFDNICSQVCPLAAM: “inactive”.
For the substance GNSHLSCERSCNIKMCMSGG, the amyloid nucleation score result is “inactive”.
In turn, ICWMRDTTVVGFRWV came in with an amyloid nucleation score of -0.07 ± 0.96.
For SRPVVRVINYYELGHIKVMS the value was “inactive”; for RYLRKEDDWFIDRAVD, “inactive”; for SLVSFFCHVGNKWFNHDFPI, “inactive”.
Next, RYAHRSKRNTSWHVYMFKVV: “inactive”.
Next, NLSRRIWTHYHTQVNLIGID: “inactive”.
As to DWFSMVSRSGVDLKSVKRFG, the amyloid nucleation score entry was “inactive”.
As to NLSSNVLTAALK, the amyloid nucleation score entry was “inactive”.
Turning to NLGRFLFSICCASLFAGCNG, the amyloid nucleation score was -0.245 ± 0.99.
SARSVIYYVPGLSTWSVTS: the amyloid nucleation score entry was “inactive”.
Next, DSSKV: “inactive”.
For MHWCN the value was 0.228 ± 0.82.
For the substance HGHSQFL, the amyloid nucleation score entry was “inactive”.
For TYTFLSPVIDYKLYVYQCRT the value was 1.72 ± 0.067; for PELCQCSHCNLLFLWTYYIA, -0.052 ± 0.98.
As for LVCMEISSNFLATVCVEWIG, the amyloid nucleation score entry is “inactive”.
Next, LRFNVDAMFSTSVVRIQKCL: “inactive”; TARYMLSKYVTLCNDVSI: 0.984 ± 0.12; FSVDYQHRCQGQYPYIWYSN: “inactive”.
In the case of VDNCIWLFLSTFYDGCVVML, the amyloid nucleation score result is “inactive”.
For VRMRDFKENARRMVP the value was “inactive”; for YRTIVVLSNFFNILSFSKNQ, 0.718 ± 0.15.
As for YQCFVKELYKECISHWARRK, the amyloid nucleation score entry is “inactive”.
Next, LYINYLCWMNKYTACLPLHL: “inactive”; LFKDSIVLIGILYCMFNLHD: “inactive”; YDWMFLYPTSIS: 0.319 ± 0.18.
On to CVTCLARLHDGPEGIVHLCT, for which the amyloid nucleation score entry was “inactive”.
Next, SDGIYV: “inactive”; GLRVTH: “inactive”; ASASY: “inactive”.
As for CMVLDGRYNGWSISVWDARL, the amyloid nucleation score result is “inactive”.
For DLITSRSVLFVIVVL the value was “inactive”.
Take ANCINRV: the amyloid nucleation score result is “inactive”.
Next, MYNLNVLNE: “inactive”; KCNRFRG: “inactive”.
Take HLNYYGAL: the amyloid nucleation score result is “inactive”.
On to NSFSRINKDIISSNSVG, for which the amyloid nucleation score result was “inactive”.
For SNSYYWPNLYVFSTVNMVSD the value was 2 ± 0.098; for GVCSLCKTLR, “inactive”.
